For test [1], the target named is microtubules (polymerized from unlabeled tubulin, Taxol-stabilised).
The target is the same in test [2]. This is another data set of the same source.

Sequence of microtubules (polymerized from unlabeled tubulin, Taxol-stabilised) (chain, as listed by the source, chain 1 of 2): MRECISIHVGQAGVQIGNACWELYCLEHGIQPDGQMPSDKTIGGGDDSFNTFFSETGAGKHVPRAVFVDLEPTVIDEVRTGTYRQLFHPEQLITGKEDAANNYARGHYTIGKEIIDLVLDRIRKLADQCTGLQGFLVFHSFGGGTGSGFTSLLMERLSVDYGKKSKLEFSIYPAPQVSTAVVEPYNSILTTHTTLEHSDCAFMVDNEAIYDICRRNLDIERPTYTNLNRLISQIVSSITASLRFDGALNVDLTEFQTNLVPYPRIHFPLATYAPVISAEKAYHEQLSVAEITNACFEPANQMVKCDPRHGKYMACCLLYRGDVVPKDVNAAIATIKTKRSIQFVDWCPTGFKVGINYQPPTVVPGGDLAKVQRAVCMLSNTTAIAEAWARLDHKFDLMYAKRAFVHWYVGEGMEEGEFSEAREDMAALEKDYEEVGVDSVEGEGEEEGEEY
Sequence of microtubules (polymerized from unlabeled tubulin, Taxol-stabilised) (chain, as listed by the source, chain 2 of 2): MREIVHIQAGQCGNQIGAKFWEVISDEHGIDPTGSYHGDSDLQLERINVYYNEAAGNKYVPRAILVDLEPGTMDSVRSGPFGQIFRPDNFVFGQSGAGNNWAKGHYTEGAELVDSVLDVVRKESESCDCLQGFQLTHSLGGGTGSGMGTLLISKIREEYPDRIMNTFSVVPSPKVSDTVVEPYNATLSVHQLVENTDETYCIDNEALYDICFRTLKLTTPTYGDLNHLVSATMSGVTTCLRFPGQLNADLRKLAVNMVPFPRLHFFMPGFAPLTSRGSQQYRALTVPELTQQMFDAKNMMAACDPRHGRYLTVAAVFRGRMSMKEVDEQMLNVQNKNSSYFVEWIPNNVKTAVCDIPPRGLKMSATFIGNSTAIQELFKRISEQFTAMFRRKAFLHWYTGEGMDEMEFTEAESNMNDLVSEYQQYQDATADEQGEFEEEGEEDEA

“Saccharomyces cerevisiae cytoplasmic dynein (Dyn1) 1219-4093, monomeric construct, wild-type, P36022 1219-4092” came in with a microtubule-stimulated ATPase activity of monomeric dynein, 0–5 μM microtubules: K M for tubulin dimer in test [1] of 0.5 µM. The microtubule-stimulated ATPase activity of monomeric dynein (second series, beside mutant 14): [MT] K M in test [2] is 0.42 µM.

Source of the values: PMC6600642.
